Laboratory results: publication PMC11413682

Legend:
[1] = molecular target: CUL2^ZYG11B (residues 490–728) (human) (UniProt Q9C0D3); experiment: ITC; MicroCal iTC200; peptides (0.5–1 mmol/L) in the syringe, CUL2^ZYG11B(490–728) (0.03 mmol/L) in the cell; 18 injections of 2 μL; repeated 3 times
[2] = molecular target: CUL2^ZYG11B (residues 490–728) (human) (UniProt Q9C0D3); experiment: ITC; SNX11-degron peptide titrated into CUL2^ZYG11B that was pre-incubated with the ORF10 peptide (pre-formed ZYG11B/ORF10 N5 complex)

Chain of CUL2^ZYG11B (residues 490–728) (human) (Q9C0D3 490-728): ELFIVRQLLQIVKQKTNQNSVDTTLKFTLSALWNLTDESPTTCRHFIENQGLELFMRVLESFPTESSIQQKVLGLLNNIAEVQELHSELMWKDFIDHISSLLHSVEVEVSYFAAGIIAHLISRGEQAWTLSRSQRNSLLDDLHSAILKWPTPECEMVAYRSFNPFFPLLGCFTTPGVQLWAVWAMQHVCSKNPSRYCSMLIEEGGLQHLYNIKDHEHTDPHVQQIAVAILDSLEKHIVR

Substance	Kd [1] [µM]	fold lower affinity for CUL2^ZYG11B pre-bound to the ORF10 peptide than for CUL2^ZYG11B alone [2] [fold]
SARS-CoV-2 ORF10 N3 peptide	14.5	
SARS-CoV-2 ORF10 N4 peptide	5.18	
SNX11-degron peptide		13
